Laboratory results from IntAct's records for PubMed 31515488.

B1: Calcium-binding and coiled-coil domain-containing protein 2 (Homo sapiens), Q13137 (parent)
chain: MEETIKDPPTSAVLLDHCHFSQVIFNSVEKFYIPGGDVTCHYTFTQHFIPRRKDWIGIFRVGWKTTREYYTFMWVTLPIDLNNKSAKQQEVQFKAYYLPKDDEYYQFCYVDEDGVVRGASIPFQFRPENEEDILVVTTQGEVEEIEQHNKELCKENQELKDSCISLQKQNSDMQAELQKKQEELETLQSINKKLELKVKEQKDYWETELLQLKEQNQKMSSENEKMGIRVDQLQAQLSTQEKEMEKLVQGDQDKTEQLEQLKKENDHLFLSLTEQRKDQKKLEQTVEQMKQNETTAMKKQQELMDENFDLSKRLSENEIICNALQRQKERLEGENDLLKRENSRLLSYMGLDFNSLPYQVPTSDEGGARQNPGLAYGNPYSGIQESSSPSPLSIKKCPICKADDICDHTLEQQQMQPLCFNCPICDKIFPATEKQIFEDHVFCHSL
partner: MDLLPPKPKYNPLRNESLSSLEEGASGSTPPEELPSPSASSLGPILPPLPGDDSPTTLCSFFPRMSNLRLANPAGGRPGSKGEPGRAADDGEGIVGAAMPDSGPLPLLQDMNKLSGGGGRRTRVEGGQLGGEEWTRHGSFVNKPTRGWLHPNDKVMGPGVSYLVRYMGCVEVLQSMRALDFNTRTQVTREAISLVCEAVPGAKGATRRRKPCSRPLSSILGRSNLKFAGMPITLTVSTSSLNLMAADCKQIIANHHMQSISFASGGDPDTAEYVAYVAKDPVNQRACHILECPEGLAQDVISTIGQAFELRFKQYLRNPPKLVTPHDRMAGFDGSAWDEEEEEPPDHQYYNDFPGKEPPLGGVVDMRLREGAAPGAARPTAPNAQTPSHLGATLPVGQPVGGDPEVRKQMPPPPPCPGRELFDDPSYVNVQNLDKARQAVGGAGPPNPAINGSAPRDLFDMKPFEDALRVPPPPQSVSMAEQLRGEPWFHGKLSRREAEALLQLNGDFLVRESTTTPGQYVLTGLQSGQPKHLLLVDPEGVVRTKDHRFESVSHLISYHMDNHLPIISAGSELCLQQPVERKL
B2: Annexin A10 (Homo sapiens), Q9UJ72 (parent)
chain: MFCGDYVQGTIFPAPNFNPIMDAQMLGGALQGFDCDKDMLINILTQRCNAQRMMIAEAYQSMYGRDLIGDMREQLSDHFKDVMAGLMYPPPLYDAHELWHAMKGVGTDENCLIEILASRTNGEIFQMREAYCLQYSNNLQEDIYSETSGHFRDTLMNLVQGTREEGYTDPAMAAQDAMVLWEACQQKTGEHKTMLQMILCNKSYQQLRLVFQEFQNISGQDMVDAINECYDGYFQELLVAIVLCVRDKPAYFAYRLYSAIHDFGFHNKTVIRILIARSEIDLLTIRKRYKERYGKSLFHDIRNFASGHYKKALLAICAGDAEDY
partner: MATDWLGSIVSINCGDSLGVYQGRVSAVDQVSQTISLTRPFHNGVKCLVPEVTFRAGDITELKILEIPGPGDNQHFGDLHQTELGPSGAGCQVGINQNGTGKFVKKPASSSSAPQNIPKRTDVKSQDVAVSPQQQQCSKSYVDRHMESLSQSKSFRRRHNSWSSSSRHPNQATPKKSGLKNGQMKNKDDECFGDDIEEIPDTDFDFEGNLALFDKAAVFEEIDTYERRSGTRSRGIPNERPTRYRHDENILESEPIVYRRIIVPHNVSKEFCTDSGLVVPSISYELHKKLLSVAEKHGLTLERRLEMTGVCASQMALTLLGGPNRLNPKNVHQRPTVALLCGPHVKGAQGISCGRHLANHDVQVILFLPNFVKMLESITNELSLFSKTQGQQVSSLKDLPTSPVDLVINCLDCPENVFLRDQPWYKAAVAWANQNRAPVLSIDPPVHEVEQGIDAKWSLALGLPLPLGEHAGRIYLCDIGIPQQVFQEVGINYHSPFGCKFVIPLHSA
B3: Serine/threonine-protein kinase PAK 5 (Homo sapiens), Q9P286 (parent)
chain: MFGKKKKKIEISGPSNFEHRVHTGFDPQEQKFTGLPQQWHSLLADTANRPKPMVDPSCITPIQLAPMKTIVRGNKPCKETSINGLLEDFDNISVTRSNSLRKESPPTPDQGASSHGPGHAEENGFITFSQYSSESDTTADYTTEKYREKSLYGDDLDPYYRGSHAAKQNGHVMKMKHGEAYYSEVKPLKSDFARFSADYHSHLDSLSKPSEYSDLKWEYQRASSSSPLDYSFQFTPSRTAGTSGCSKESLAYSESEWGPSLDDYDRRPKSSYLNQTSPQPTMRQRSRSGSGLQEPMMPFGASAFKTHPQGHSYNSYTYPRLSEPTMCIPKVDYDRAQMVLSPPLSGSDTYPRGPAKLPQSQSKSGYSSSSHQYPSGYHKATLYHHPSLQSSSQYISTASYLSSLSLSSSTYPPPSWGSSSDQQPSRVSHEQFRAALQLVVSPGDPREYLANFIKIGEGSTGIVCIATEKHTGKQVAVKKMDLRKQQRRELLFNEVVIMRDYHHDNVVDMYSSYLVGDELWVVMEFLEGGALTDIVTHTRMNEEQIATVCLSVLRALSYLHNQGVIHRDIKSDSILLTSDGRIKLSDFGFCAQVSKEVPKRKSLVGTPYWMAPEVISRLPYGTEVDIWSLGIMVIEMIDGEPPYFNEPPLQAMRRIRDSLPPRVKDLHKVSSVLRGFLDLMLVREPSQRATAQELLGHPFLKLAGPPSCIVPLMRQYRHH
partner: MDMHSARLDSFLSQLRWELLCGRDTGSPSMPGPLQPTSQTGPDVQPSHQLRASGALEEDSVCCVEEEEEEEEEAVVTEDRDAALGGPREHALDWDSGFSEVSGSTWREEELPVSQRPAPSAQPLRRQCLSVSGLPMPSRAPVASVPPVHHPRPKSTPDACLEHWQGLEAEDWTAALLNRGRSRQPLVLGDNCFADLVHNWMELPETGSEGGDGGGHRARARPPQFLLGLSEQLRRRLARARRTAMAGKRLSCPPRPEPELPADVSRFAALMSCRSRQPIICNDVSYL
B4: Coiled-coil domain-containing protein 33 (Homo sapiens), Q8N5R6-5 (parent)
chain: MGEPGPPSPPAPKAAPGLIDSFSEMNNYRRAMQKMAEDILSLRRQASILEGENRILRSRLAQQEEEEGQGKASEAQNTVSMKQKLLLSELDMKKLRDRVQHLQNELIRKNDREKELLLLYQAQQPQAALLKQYQGKLQKMKALEETVRHQEKVIEKMERVLEDRLQDRSKPPPLNRQQGKPYTGFPMLSASGLPLGSMGENLPVELYSVLLAENAKLRTELDKNRHQQAPIILQQQALPVDPGELGAGGDLTERLQETHGPGHSECTETLPAQDLLSGTSDKFNLLAKLEHAQSRILSLESQLEDSARRWGREKQDLATRLQEQEKGFRHPSNSIIIEQPVSDPPGVAPRGSGGGAGSHRTPKVTGP
partner: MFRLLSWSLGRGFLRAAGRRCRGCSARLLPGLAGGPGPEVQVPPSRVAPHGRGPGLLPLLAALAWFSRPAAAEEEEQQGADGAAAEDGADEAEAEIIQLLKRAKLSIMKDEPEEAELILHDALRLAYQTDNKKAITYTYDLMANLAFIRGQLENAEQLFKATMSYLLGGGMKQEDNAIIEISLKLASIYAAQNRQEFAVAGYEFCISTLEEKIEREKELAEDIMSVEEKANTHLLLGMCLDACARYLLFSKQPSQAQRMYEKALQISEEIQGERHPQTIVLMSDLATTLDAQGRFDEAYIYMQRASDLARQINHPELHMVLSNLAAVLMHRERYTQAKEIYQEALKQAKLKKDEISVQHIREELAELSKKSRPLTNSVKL
B5: Keratin-associated protein 12-2 (Homo sapiens), P59991 (parent)
chain: MCHTSCSSGCQPACCAPSPCQPACCVPSSCQASCCVPVGCQSSVCVPVSFKPAVCLPVSCQSSVCVPMSFKSAVCVPVSCQSSVCVPVSCRPIVCAAPSCQSSLCVPVSCRPVVYAAPSCQSSGCCQPSCTSVLCRPISYSISSCC
partner: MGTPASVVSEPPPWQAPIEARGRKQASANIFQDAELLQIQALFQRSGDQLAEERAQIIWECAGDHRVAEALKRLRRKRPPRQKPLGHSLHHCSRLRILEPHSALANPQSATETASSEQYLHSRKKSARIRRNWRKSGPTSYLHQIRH

Variants of: B1
Conditions: with shc1_human SHC1, P29353

Variant | effect of a mutation on the interaction
E222K | with no effect

Variants of: B2
Conditions: with edc3_human EDC3, Q96F86

Variant | effect of a mutation on the interaction
M62T | disrupting interaction strength
F234S | with no effect
M71L | with no effect

Variants of: B3
Conditions: with inka1_human INKA1, Q96EL1

Variant | effect of a mutation on the interaction
S511N | with no effect

Variants of: B4
Conditions: with ttc19_human TTC19, Q6DKK2

Variant | effect of a mutation on the interaction
G196R | with no effect
M25V | with no effect
P203L | with no effect
R30L | with no effect

Variants of: B5
Conditions: with avpi1_human AVPI1, Q5T686

Variant | effect of a mutation on the interaction
S143P | with no effect
A16T | with no effect
